Assays:
Assay in all cases: IEDB peptide-MHC binding, purified MHC/competitive/radioactivity; filed as Kd, often an IC50 or EC50 that approximates it; ≥ and ≤ were set here for values at or beyond the usual limits of such assays
Settings in all cases: source organism: Homo sapiens
[1] = molecular target: HLA-A*33:01
[2] = molecular target: HLA-A*68:01
[3] = molecular target: HLA-A*31:01
[4] = molecular target: HLA-A*11:01
[5] = molecular target: HLA-A*03:01

How did the Kd [1] turn out when MSLQRQFLR was run?
The Kd was 14 nM.

And the Kd [2]?
Its Kd is 8.5 nM.

And the Kd [3]?
The Kd was 8.3 nM.

And the Kd [4]?
The Kd was 8.3 nM.

And the Kd [5]?
The Kd was 54 nM.

Which results are given for LLGPGRPYR?
Kd [1]: 106 nM; Kd [2]: 1090 nM; Kd [3]: 11 nM; Kd [4]: 656 nM; Kd [5]: 570 nM

Source: the Immune Epitope Database (IEDB)
